From PMC2744598

Key:
[1] = biological target: Ede1_rhodamine (yeast) (UniProt P34216); test: fluorescence polarisation
[2] = biological target: GST-DRM2 UBA1 (Arabidopsis); test: SPR
[3] = biological target: GST-Ede1 UBA (yeast) (UniProt P34216); test: SPR
[4] = biological target: GST-hHR23A UBA1 (human); test: SPR
[5] = biological target: Ddi1 UBA, fluorescent free domain (yeast) (UniProt P40087); test: fluorescence polarisation
[6] = biological target: Dsk2 UBA, fluorescent free domain (yeast) (UniProt P48510); test: fluorescence polarisation
Dsk2 UBA, fluorescent free domain (yeast), sequence (P48510 327-371): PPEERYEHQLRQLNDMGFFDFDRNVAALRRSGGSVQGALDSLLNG

[7] = biological target: fluorescein-labeled hHR23A-UBA1 (human); test: fluorescence polarisation
[8] = biological target: GST-His/GST-Ede1 heterodimer of the functionally monomeric mixture (not stated | yeast) (UniProt P34216); test: SPR

GST-Ede1 UBA (yeast), sequence (P34216 1338-1380): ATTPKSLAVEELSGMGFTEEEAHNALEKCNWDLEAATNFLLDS
Ede1_rhodamine (yeast), sequence (P34216 1338-1380): as above
Ddi1 UBA, fluorescent free domain (yeast), sequence (P40087 389-428): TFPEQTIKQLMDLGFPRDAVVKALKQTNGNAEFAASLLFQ

In the case of “K48-linked diubiquitin (from UniProt P0CG48 1-76)”, the Kd [1] is reported as 86 µM, the Kd [2] is reported as 140 µM and the Kd [3] is reported as 110 µM. It also gave a Kd [4] of 36 µM.
“K48-linked tetraubiquitin (from UniProt P0CG48 1-76)” gave a Kd [5] of 50 µM, a Kd [6] of 1.4 µM and a Kd [1] of 31 µM. It also gave a Kd [7] of 9 µM, a Kd [3] of 25 µM and a Kd [8] of 44 µM.
Work on “K63-linked diubiquitin (from UniProt P0CG48 1-76)” yielded a Kd [1] of 120 µM, a Kd [2] of 89 µM and a Kd [3] of 48 µM. It also gave a Kd [4] of 26 µM.
“K63-linked tetraubiquitin (from UniProt P0CG48 1-76)” gave a Kd [5] of 92 µM, a Kd [6] of 2.2 µM and a Kd [1] of 54 µM. The Kd [7] was 30 µM, the Kd [3] was 6 µM and the Kd [8] was 23 µM. For the same substance, the Kd [4] was 4.7 µM.
